According to US20030061635A1, “Pollen-specific novel calmodulin-binding protein, NPG1 (No Pollen Germination1), promoter, coding sequences and methods for using the same” (priority 2001, published 2003):

Tests used:
35S-labeled AtCaM = assay: Blot overlay of bacterially expressed maize NPG1 fusion proteins with 35S-CaM; type: binding, Arabidopsis thaliana; conditions: in the presence of EGTA
Method: The 1.2-kb cDNA insert (named P3) containing the coding region for 242 amino acids in the carboxyl-terminal region was cloned in-frame into a pET28b expression vector. For mapping the CaM-binding domain, several truncated constructs were prepared in a pET vector. The P3 cDNA in pET28 was digested with either NcoI or BamHI to release a 168- or 717-bp fragment corresponding to the 5′ end of the cDNA. The NcoI and BamHI fragments were cloned into pET28b vector digested with the respective enzymes to generate P3/NcoI and P3/BamHI clones. The P3 clones lacking either NcoI or BamHI fragments were religated to generate PΔNcoI and PΔBamHI expression clones. […]
Soluble and insoluble proteins from the induced and un-induced cultures were separated on 12% SDS-polyacrylamide gels and blotted as described above. […] Binding to biotinylated CaM was detected by blocking the blots in 3% gelatin in TBS/Ca/Mg or TBS/EGTA/Mg (50 mM Tris-HCl, pH 7.5, 50 mM MgCl2, 150 mM NaCl, and 5 mM of either CaCl2 or EGTA) at 30° C. […] The blots were then incubated in Vectastain ABC.HRP in TBS/Ca/Mg or TBS/EGTA/Mg for 30 min, washed 3 times, 10 min each, with the above buffer and the CaM-binding proteins were detected colorimetrically in a substrate solution (0.8 mg/ml diaminobenzidine, 0.4 mg/ml NiCl2, and 0.009% H2O2 in 100 mM Tris-HCl, pH 7.5).

biotinylated CaM = biological target: T1, biotinylated CaM (Bos taurus, UniProt P62157); assay: Blot overlay of fusion proteins with biotinylated CaM; type: binding; conditions: in the presence of Ca2+
T1 construct: purchased Calbiochem-Novabiochem (San Diego, Calif.)
Method: Soluble and insoluble proteins from the induced and un-induced cultures were separated on 12% SDS-polyacrylamide gels and blotted as described above. To detect the binding of the expressed proteins to ^35S-labeled AtCaM, duplicate blots were blocked for 15 min in TBS (50 mM Tris-HCl, pH 7.5, 150 mM NaCl) containing 5 mM of either CaCl2 or EGTA and 1% nonfat dry milk. The blots were then incubated for 12 h in a mixture of ^35S-labeled AtCaM isoforms at […] in the same buffers as above. The filters were then washed with the corresponding buffer and dried before exposing to X-ray film. Binding to biotinylated CaM was detected by blocking the blots in 3% gelatin in TBS/Ca/Mg or TBS/EGTA/Mg (50 mM Tris-HCl, pH 7.5, 50 mM MgCl2, 150 mM NaCl, and 5 mM of either CaCl2 or EGTA) at 30° C. The blots were then incubated in […] biotinylated CaM for 2 h in TBS/Ca/Mg or TBS/EGTA/Mg containing 0.1% Tween 20 and 1% gelatin followed by three washes of 10 min each in the corresponding buffers above. The blots were then incubated in Vectastain ABC.HRP in TBS/Ca/Mg or TBS/EGTA/Mg for 30 min, washed 3 times, 10 min each, with the above buffer and the CaM-binding proteins were detected colorimetrically in a substrate solution (0.8 mg/ml diaminobenzidine, 0.4 mg/ml NiCl2, and 0.009% H2O2 in 100 mM Tris-HCl, pH 7.5).

CaM-Sepharose = biological target: T2, CaM-Sepharose (Bos taurus, UniProt P62157); assay: Native NPG1 from maize pollen on CaM-Sepharose column / pull-down with CaM-Sepharose beads; type: binding, bovine; conditions: bound with Ca2+, eluted with EGTA; maize pollen extract
T2 construct: purchased Amersham Pharmacia Biotech UK Ltd., Little Chalfont, Buckinghamshire, UK
Method: Maize pollen proteins were extracted in a buffer containing 50 mM Tris-HCl, pH 7.4, 250 mM sucrose, 5 mM DTT, and complete protease inhibitor mixture. The extract was first centrifuged at 14,000×g for 20 min and then at 100,000×g for 15 min at 4° C. to obtain the supernatant containing soluble proteins. Prior to loading the supernatant onto the CaM-Sepharose column (Amersham Pharmacia Biotech UK Ltd., Little Chalfont, Buckinghamshire, UK) the concentration of Ca^2+ was adjusted to 1.25 mM. The flow-through was collected and saved. The column was washed thoroughly with binding buffer (50 mM Tris-HCl, pH 7.5, 150 mM NaCl, 1.25 mM CaCl2) to remove unbound proteins. Washes equivalent to 1-bed volume of the column were collected and saved. The CaM-binding proteins were eluted with elution buffer (50 mM Tris-HCl, pH 7.5, 150 mM NaCl, 5 mM EGTA). The absorbance of the eluted fractions was recorded at 235 and 280 nm to compare the elution profile of protein with EGTA. Initial soluble extract, flow-through, wash fraction, and eluted protein were separated on three denaturing gels. One gel was stained with Coomassie Blue and the other two were blotted onto nitrocellulose membranes and probed with NPG1-specific antibody or HRP-CaM.
[…] of pollen soluble proteins prepared as described above were mixed and incubated with 0.2 ml of CaM-Sepharose beads at room temperature for 30 min. […]

[1] = biological target: T3, HRP-CaM (Arabidopsis CaM2) (Arabidopsis thaliana, UniProt P0DH97); assay: HRP-CaM blot overlay assay; type: binding
T3 construct: made in house; host or cells: E. coli BL21(DE3)
Method: (§1) HRP was conjugated to CaM and used in blot overlay assays according to the procedure described by Lee et al. (1999) BBA 1433:56-67. Briefly, the Arabidopsis CaM2 was incubated in 25 mM Tris-HCl, pH 7, 2 mM EGTA, and 0.1 M DTT at 55° C. for 1.5 h and the reduced CaM was extensively dialyzed against phosphate-buffered saline at 4° C. Maleimide-activated HRP (Pierce Biotechnology, Inc., Rockford, Ill.) and reduced CaM were incubated at a molar ratio of 1:1 in phosphate-buffered saline at room temperature for 1.5 h. The resulting HRP-CaM complex was verified on a denaturing gel and used in blot-overlay assays. Protein blots were prepared as described above, rinsed in TBST (TBS containing 0.1% (v/v) Tween 20), and blocked by incubating in TBST plus 7% (w/v) non-fat dry milk overnight. The blocked membranes were washed three times, 5 min each, with TBST. […] The proteins that bound to HRP-CaM were detected by immersing the blots in a substrate solution as above.
Maize pollen proteins were extracted in a buffer containing 50 mM Tris-HCl, pH 7.4, 250 mM sucrose, 5 mM DTT, and complete protease inhibitor mixture. […] The absorbance of the eluted fractions was recorded at 235 and 280 nm to compare the elution profile of protein with EGTA. […]

CaM-Sepharose beads = assay: Bacterially expressed AtNPG1 binding to CaM-Sepharose beads; conditions: eluted with EGTA-containing buffer
Method: A 2.0 kb EcoRI fragment of AtNPG1 cDNA containing the entire coding region was subcloned into pET28a and the orientation of the cDNA was confirmed by restriction analysis and sequencing. Induction of fusion protein, its purification on CaM Sepharose column and detection with horseradish peroxidase CaM isoforms was performed essentially as described earlier (Reddy and Reddy (2000) J. Biol. Chem. 275:35457-35470).

[2] = tested on: Arabidopsis CaM isoform-2, -4 and -6; assay: Blot overlay of purified AtNPG1 with horseradish peroxidase labeled Arabidopsis CaM isoforms; type: binding, Arabidopsis thaliana; conditions: absence or presence of calcium
Method: as §1, with “TBST. After equilibration in the overlay buffer (50 mM imidazole-HCl, pH 7.5, and 150 mM NaCl) for 1 h, the membranes were incubated for 1 h in overlay buffer containing 0.1% gelatin and […] HRP-CaM. The HRP-CaM overlay blots were washed sequentially in three buffers. Wash with each buffer was performed five times for 5 min each.” for “TBST.”, “above. […]” for “above.”

Molecule | binding to CaM (35S-labeled AtCaM) | binding to biotinylated CaM (biotinylated CaM) | binding of native protein to CaM-Sepharose (CaM-Sepharose) | detection by HRP-CaM in blot overlay [1] | binding to CaM-Sepharose beads (CaM-Sepharose beads) | binding to Arabidopsis CaM isoforms in blot overlay [2]
NPG1: maize pollen-specific calmodulin-binding protein, 659 amino acid residues, about 72 kDa, SEQ ID NO:1 (protein, X: residue not identified in the source) MPLIRYYVDHVHVAVEARALLGRLEFQKGNVEVALRVFDGIDLQAAIQQFQPSLSDKTPSKKGRTKSEIPSSVPQNNPASLVLEAIYLKSLSLQKLGKSTEAANQCKSVLDSVESIFQNGAPDIEQKLQETVNKSVELLPEAWKHAGSNQEALASYRRALLSPWNLDDECRTRVQKRFASFLLYXTNIDWSPPSMAQQVEGCFVPKNSVEEAVLLLMVVLRSWYQGKTHWDPSVMEHLTYALSLCGEPLVLAKQLEEVLPGVYPRTERWATLALCYYVAGQKDVALNFLRKSLNKLENPNDVLALLLAAKICSKERHLASEGVEYARRVIACAESSDPHLKSVGLHFLGSCLGNKSKVVSSDYQRSLLQTETLKSFAESIGLNRYNADLIFDMGVEYAEQRNMNAALRCAKEFIEATGGSVSKGWRLLALILSAQQRFSEAEVATDAALDETAKLDQGSLLRVKAKLKVAQSSPMEAVEAYRALLALVQAQKNSPGGSCKSATEDADGSVSEFEIWQGLANLYSSLSYWRDAEICLNKARALKLYSAATLHAEGYMHEARDQTTDALAAYVNAFSTELEHVPSKVAIGAMLSKQGPRFLPAARCFLSDALRVEPTNRMAWLYLGKVHRSDGRISDAADCFQAAVMLEESDPVESFSSLS | No binding to CaM was observed | did not bind to biotinylated CaM | binds CaM in the presence of Ca^2+ | also detected by HRP-CaM |  | 
AtNPG1: Arabidopsis NPG1, protein of 704 amino acids, SEQ ID NO:10, bacterially expressed as T7 tag fusion (protein, listed as Arabidopsis thaliana, T7 tag fusion) MLGNQSADFSEKGEDEIVRQLCANGICMKTTEVEAKLDEGNIQEAESSLREGLSLNFEEARALLGRLEYQRGNLEGALRVFEGIDLQAAIQRLQVSVPLEKPATKKNRPREPQQSVSQHAANLVLEAIYLKAKSLQKLGRITEAAHECKSVLDSVEKIFQQGIPDAQVDNKLQETVSHAVELLPALWKESGDYQEAISAYRRALLSQWNLDNDCCARIQKDFAVFLLHSGVEASPPSLGSQIEGSYIPRNNIEEAILLLMILLKKFNLGKAKWDPSVFEHLTFALSLCSQTAVLAKQLEEVMPGVFSRIERWNTLALSYSAAGQNSAAVNLLRKSLHKHEQPDDLVALLLAAKLCSEEPSLAAEGTGYAQRAINNAQGMDEHLKGVGLRMLGLCLGKQAKVPTSDFERSRLQSESLKALDGAIAFEHNNPDLIFELGVQYAEQRNLKAASRYAKEFIDATGGSVLKGWRFLALVLSAQQRFSEAEVVTDAALDETAKWDQGPLLRLKAKLKISQSNPTEAVETYRYLLALVQAQRKSFGPLRTLSQMEEDKVNEFEVWHGLAYLYSSLSHWNDVEVCLKKAGELKQYSASMLHTEGRMWEGRKEFKPALAAFLDGLLLDGSSVPCKVAVGALLSERGKDHQPTLPVARSLLSDALRIDPTNRKAWYYLGMVHKSDGRIADATDCFQAASMLEESDPIESFSTIL |  |  |  |  | bound CaM-Sepharose beads in a calcium-dependent manner | bound three Arabidopsis CaM isoforms in a calcium-dependent manner
